Assay: observed amide hydrogen exchange rate constant kobs (stretched exponential fit, FD-normalized) (s^-1); higher = faster H/D exchange (less protection)
Details: pH 3 (pH read); temperature: 20 °C; D2O: 88%
Outline: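 Jurkat tryptic peptides (LysC/trypsin, carbamidomethylated cysteines) were labeled in 88% D2O, pHread 3, 20 °C, quenched with 0.23% formic acid at 13 times from 18 to 93,600 s, in processing triplicates. MS1 uptake (Q-Exactive HF, HDExaminer, no back-exchange correction) was normalized to full-deuteration controls (24 h, 37 °C). Curves were fitted to a stretched single exponential with β = 0.8. The observed exchange rate constant kobs is the fitted rate.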

Question: With ILTFDQLALDSPK as the substance, how does the “observed amide hydrogen exchange rate constant kobs” value read?
Answer: The value was 0.000724.

Question: Which “observed amide hydrogen exchange rate constant kobs” value does the source give for GPSSVEDIK here?
Answer: The value was 0.00156.

Question: Which “observed amide hydrogen exchange rate constant kobs” value does the source give for EIVLADVIDNDSWR here?
Answer: The value was 0.00114.

Question: Which “observed amide hydrogen exchange rate constant kobs” value does the source give for LLDVVHPAAK here?
Answer: Its value is 0.00126.

Question: Which “observed amide hydrogen exchange rate constant kobs” value does the source give for ATENDIANFFSPLNPIR here?
Answer: Its value is 0.000823.

Question: Which “observed amide hydrogen exchange rate constant kobs” value does the source give for YTPSGQAGAAASESLFVSNHAY here?
Answer: Its value is 0.00149.

Question: For SLEGDLEDLK, which “observed amide hydrogen exchange rate constant kobs” value is on record?
Answer: Its value is 0.00103.

Question: For ARFEELNADLFR, which “observed amide hydrogen exchange rate constant kobs” value is on record?
Answer: Its value is 0.00175.

Question: For YLAEFATGNDRK, which “observed amide hydrogen exchange rate constant kobs” value is on record?
Answer: Its value is 0.0022.

Question: With SVTEQGAELSNEER as the substance, how does the “observed amide hydrogen exchange rate constant kobs” value read?
Answer: The value was 0.00228.

Question: Which “observed amide hydrogen exchange rate constant kobs” value does the source give for DQLIYNLLK here?
Answer: Its value is 0.000541.

Question: For YALYDATYETK, which “observed amide hydrogen exchange rate constant kobs” value is on record?
Answer: The value was 0.00134.

Question: With FHVEEEGK as the substance, how does the “observed amide hydrogen exchange rate constant kobs” value read?
Answer: The value was 0.00347.

Question: For IGEHTPSALAIMENANVLAR, which “observed amide hydrogen exchange rate constant kobs” value is on record?
Answer: Its value is 0.000813.

Question: Which “observed amide hydrogen exchange rate constant kobs” value does the source give for TLFPLIEAK here?
Answer: Its value is 0.000566.

Question: For LQAVEVVITHLAPGTK, which “observed amide hydrogen exchange rate constant kobs” value is on record?
Answer: The value was 0.000819.

Question: Which “observed amide hydrogen exchange rate constant kobs” value does the source give for GILAADESTGSIAK here?
Answer: The value was 0.00166.

Question: Which “observed amide hydrogen exchange rate constant kobs” value does the source give for IRYESLTDPSK here?
Answer: Its value is 0.00212.

Question: With TENLLGSYFPK as the substance, how does the “observed amide hydrogen exchange rate constant kobs” value read?
Answer: The value was 0.00102.

Question: Which “observed amide hydrogen exchange rate constant kobs” value does the source give for DRVTDALNATR here?
Answer: The value was 0.000789.

Question: For RVIISAPSADAPMFVMGVNHEK, which “observed amide hydrogen exchange rate constant kobs” value is on record?
Answer: Its value is 0.000994.

Question: With YISPDQLADLYK as the substance, how does the “observed amide hydrogen exchange rate constant kobs” value read?
Answer: Its value is 0.000916.

Question: For ELQEMDKDDESLIK, which “observed amide hydrogen exchange rate constant kobs” value is on record?
Answer: The value was 0.00203.

Question: Which “observed amide hydrogen exchange rate constant kobs” value does the source give for VNFAMNVGK here?
Answer: Its value is 0.000903.

Question: With VRVELSNGEK as the substance, how does the “observed amide hydrogen exchange rate constant kobs” value read?
Answer: The value was 0.00127.

Question: For GGSDGYGSGR, which “observed amide hydrogen exchange rate constant kobs” value is on record?
Answer: Its value is 0.00404.

Question: Which “observed amide hydrogen exchange rate constant kobs” value does the source give for RSELIAK here?
Answer: Its value is 0.000984.

Question: With ALTVPELTQQVFDAK as the substance, how does the “observed amide hydrogen exchange rate constant kobs” value read?
Answer: Its value is 0.000761.

Question: For LLLPWLEAR, which “observed amide hydrogen exchange rate constant kobs” value is on record?
Answer: The value was 0.00056.

Question: Which “observed amide hydrogen exchange rate constant kobs” value does the source give for YPSPFFVFGEK here?
Answer: The value was 0.000978.

Question: With VLQALEGLK as the substance, how does the “observed amide hydrogen exchange rate constant kobs” value read?
Answer: The value was 0.00101.

Question: With GLTPSQIGVILR as the substance, how does the “observed amide hydrogen exchange rate constant kobs” value read?
Answer: The value was 0.00062.

Question: Which “observed amide hydrogen exchange rate constant kobs” value does the source give for SLAGSSGPGASSGTSGDHGELVVR here?
Answer: The value was 0.00237.

Question: Which “observed amide hydrogen exchange rate constant kobs” value does the source give for SESPKEPEQLRK here?
Answer: The value was 0.00165.

Question: For VELLLK, which “observed amide hydrogen exchange rate constant kobs” value is on record?
Answer: The value was 0.000604.

Question: Which “observed amide hydrogen exchange rate constant kobs” value does the source give for AGAHLQGGAK here?
Answer: Its value is 0.00372.

Question: For GDEELDSLIK, which “observed amide hydrogen exchange rate constant kobs” value is on record?
Answer: Its value is 0.000999.

Question: For EGGLGPLNIPLLADVTR, which “observed amide hydrogen exchange rate constant kobs” value is on record?
Answer: The value was 0.000844.

Question: For GLSEDTTEETLK, which “observed amide hydrogen exchange rate constant kobs” value is on record?
Answer: Its value is 0.003.

Question: For AVFVDLEPTVIDEVR, which “observed amide hydrogen exchange rate constant kobs” value is on record?
Answer: The value was 0.000889.

Question: With DVNVNFEK as the substance, how does the “observed amide hydrogen exchange rate constant kobs” value read?
Answer: The value was 0.00146.

Question: For SSTPEEVK, which “observed amide hydrogen exchange rate constant kobs” value is on record?
Answer: Its value is 0.00152.

Question: Which “observed amide hydrogen exchange rate constant kobs” value does the source give for HAVSEGTK here?
Answer: Its value is 0.00263.

Question: For EGMNIVEAMER, which “observed amide hydrogen exchange rate constant kobs” value is on record?
Answer: The value was 0.00123.

Question: Which “observed amide hydrogen exchange rate constant kobs” value does the source give for RVLIAAHGNSLR here?
Answer: Its value is 0.00149.

Question: Which “observed amide hydrogen exchange rate constant kobs” value does the source give for NIPGITLLNVSK here?
Answer: The value was 0.000585.

Question: Which “observed amide hydrogen exchange rate constant kobs” value does the source give for EGVHGGLINKK here?
Answer: Its value is 0.0019.

Question: For GFGFVTYATVEEVDAAMNARPHK, which “observed amide hydrogen exchange rate constant kobs” value is on record?
Answer: Its value is 0.00098.

Question: For VAQLEQVYIR, which “observed amide hydrogen exchange rate constant kobs” value is on record?
Answer: Its value is 0.001.

Question: For LAAIAESGVER, which “observed amide hydrogen exchange rate constant kobs” value is on record?
Answer: Its value is 0.000919.

Question: Which “observed amide hydrogen exchange rate constant kobs” value does the source give for AELNEFLTR here?
Answer: Its value is 0.00113.

Question: For LGEWVGLCK, which “observed amide hydrogen exchange rate constant kobs” value is on record?
Answer: The value was 0.000773.

Question: Which “observed amide hydrogen exchange rate constant kobs” value does the source give for AILVDLEPGTMDSVR here?
Answer: Its value is 0.0012.

Question: For EFHLNESGDPSSK, which “observed amide hydrogen exchange rate constant kobs” value is on record?
Answer: The value was 0.00132.

Question: For LISWYDNEFGYSNR, which “observed amide hydrogen exchange rate constant kobs” value is on record?
Answer: Its value is 0.00164.

Question: With YLNFFTK as the substance, how does the “observed amide hydrogen exchange rate constant kobs” value read?
Answer: The value was 0.00107.

Question: With SNNVEMDWVLK as the substance, how does the “observed amide hydrogen exchange rate constant kobs” value read?
Answer: Its value is 0.000871.

Question: With DVNAAIATIK as the substance, how does the “observed amide hydrogen exchange rate constant kobs” value read?
Answer: Its value is 0.000675.

Question: With SSGPTSLFAVTVAPPGAR as the substance, how does the “observed amide hydrogen exchange rate constant kobs” value read?
Answer: Its value is 0.000757.

Question: With LFIGGLSFETTDDSLREHFEK as the substance, how does the “observed amide hydrogen exchange rate constant kobs” value read?
Answer: Its value is 0.00239.

Question: With LVQAFQFTDK as the substance, how does the “observed amide hydrogen exchange rate constant kobs” value read?
Answer: Its value is 0.00109.

Question: For AGKPVICATQMLESMIK, which “observed amide hydrogen exchange rate constant kobs” value is on record?
Answer: Its value is 0.00088.

Question: With AQVARPGGDTIFGK as the substance, how does the “observed amide hydrogen exchange rate constant kobs” value read?
Answer: Its value is 0.00115.

Question: Which “observed amide hydrogen exchange rate constant kobs” value does the source give for LRQPFFQK here?
Answer: The value was 0.00093.

Question: For TLTIVDTGIGMTK, which “observed amide hydrogen exchange rate constant kobs” value is on record?
Answer: The value was 0.000986.

Question: For QEYDESGPSIVHRK, which “observed amide hydrogen exchange rate constant kobs” value is on record?
Answer: The value was 0.00258.

Question: For LFFLQVK, which “observed amide hydrogen exchange rate constant kobs” value is on record?
Answer: Its value is 0.00042.

Question: Which “observed amide hydrogen exchange rate constant kobs” value does the source give for TAFQEALDAAGDK here?
Answer: Its value is 0.00172.

Question: For IINEPTAAAIAYGLDK, which “observed amide hydrogen exchange rate constant kobs” value is on record?
Answer: Its value is 0.000776.

Question: With GEMMDLQHGSLFLR as the substance, how does the “observed amide hydrogen exchange rate constant kobs” value read?
Answer: The value was 0.00161.

Question: With NWMNSLGVNPR as the substance, how does the “observed amide hydrogen exchange rate constant kobs” value read?
Answer: Its value is 0.000991.

Question: With EIQTAVR as the substance, how does the “observed amide hydrogen exchange rate constant kobs” value read?
Answer: The value was 0.001.

Question: With HALIIYDDLSK as the substance, how does the “observed amide hydrogen exchange rate constant kobs” value read?
Answer: The value was 0.00058.

Question: Which “observed amide hydrogen exchange rate constant kobs” value does the source give for AFLASPEYVNLPINGNGK here?
Answer: The value was 0.000869.

Question: Which “observed amide hydrogen exchange rate constant kobs” value does the source give for AAPEASGTPSSDAVSR here?
Answer: Its value is 0.00186.

Question: Which “observed amide hydrogen exchange rate constant kobs” value does the source give for EVSTYIK here?
Answer: The value was 0.000877.

Question: For TLVLLMGK, which “observed amide hydrogen exchange rate constant kobs” value is on record?
Answer: The value was 0.000552.

Question: With NNQITNNQR as the substance, how does the “observed amide hydrogen exchange rate constant kobs” value read?
Answer: The value was 0.00134.

— the supplement of paper PMC11875167
